Square brackets hold non-standard residues; d marks the D form. Peptide text beside a SMILES is read from it. dPhe(4-I) = N[C@H](Cc1ccc(I)cc1)C(=O)O; 2Nal = N[C@@H](Cc1ccc2ccccc2c1)C(=O)O; d2Nal = N[C@H](Cc1ccc2ccccc2c1)C(=O)O
B1: Ac-DPhe(pI)-Arg-Trp-DLys-NH2 (peptide)
peptide: Ac-[dPhe(4-I)]RW[dK]-NH2
SMILES: CC(=O)N[C@H](Cc1ccc(I)cc1)C(=O)N[C@@H](CCCNC(=N)N)C(=O)N[C@@H](Cc1c[nH]c2ccccc12)C(=O)N[C@H](CCCCN)C(N)=O
B2: Ac-DPhe(pI)-Arg-DPhe(pI)-Arg-NH2 (peptide)
peptide: Ac-[dPhe(4-I)]R[dPhe(4-I)]R-NH2
SMILES: CC(=O)N[C@H](Cc1ccc(I)cc1)C(=O)N[C@@H](CCCNC(=N)N)C(=O)N[C@H](Cc1ccc(I)cc1)C(=O)N[C@@H](CCCNC(=N)N)C(N)=O
B3: Ac-DPhe(pI)-Arg-DPhe(pI)-DLys-NH2 (peptide)
peptide: Ac-[dPhe(4-I)]R[dPhe(4-I)][dK]-NH2
SMILES: CC(=O)N[C@H](Cc1ccc(I)cc1)C(=O)N[C@@H](CCCNC(=N)N)C(=O)N[C@H](Cc1ccc(I)cc1)C(=O)N[C@H](CCCCN)C(N)=O
B4: Ac-DPhe(pI)-Arg-Trp-Arg-NH2 (peptide)
peptide: Ac-[dPhe(4-I)]RWR-NH2
SMILES: CC(=O)N[C@H](Cc1ccc(I)cc1)C(=O)N[C@@H](CCCNC(=N)N)C(=O)N[C@@H](Cc1c[nH]c2ccccc12)C(=O)N[C@@H](CCCNC(=N)N)C(N)=O

Columns and labels:
mMC3R = mMC3R (Mus musculus, UniProt P33033); assay: AlphaScreen cAMP agonist assay, HEK293 cells stably expressing mMC3R; format: cell-based; details: at 100 μM
Chain of mMC3R (P33033 whole entry): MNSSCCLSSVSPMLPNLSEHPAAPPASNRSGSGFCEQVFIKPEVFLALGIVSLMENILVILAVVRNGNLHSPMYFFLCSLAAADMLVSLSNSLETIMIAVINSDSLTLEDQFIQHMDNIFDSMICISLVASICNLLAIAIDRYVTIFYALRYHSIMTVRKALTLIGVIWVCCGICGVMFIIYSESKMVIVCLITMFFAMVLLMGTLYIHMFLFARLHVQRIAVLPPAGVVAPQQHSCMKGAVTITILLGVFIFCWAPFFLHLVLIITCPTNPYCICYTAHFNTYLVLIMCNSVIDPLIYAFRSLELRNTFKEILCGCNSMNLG

mMC1R = mMC1R (Mus musculus, UniProt Q01727); assay: AlphaScreen cAMP agonist assay, HEK293 cells stably expressing mMC1R; format: cell-based; details: for mMC1R agonist activity in words: full agonist = 90% of maximal NDP-MSH signal; for mMC1R partial agonist percentage of receptor activation relative to NDP-MSH: partial agonists
Chain of mMC1R (Q01727 whole entry): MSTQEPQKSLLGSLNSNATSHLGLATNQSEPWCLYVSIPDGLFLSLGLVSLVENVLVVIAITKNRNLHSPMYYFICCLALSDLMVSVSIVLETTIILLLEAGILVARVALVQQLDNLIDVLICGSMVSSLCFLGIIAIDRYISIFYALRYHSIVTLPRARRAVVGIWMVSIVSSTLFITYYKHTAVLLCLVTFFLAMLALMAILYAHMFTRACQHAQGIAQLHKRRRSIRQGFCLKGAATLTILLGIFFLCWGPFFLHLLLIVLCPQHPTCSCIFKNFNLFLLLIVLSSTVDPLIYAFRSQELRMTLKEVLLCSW

mMC5R = mMC5R (Mus musculus, UniProt P41149); assay: AlphaScreen cAMP agonist assay, HEK293 cells stably expressing mMC5R; format: cell-based; details: agonist; >100,000 = no agonist activity up to 100 μM
Chain of mMC5R (P41149 whole entry): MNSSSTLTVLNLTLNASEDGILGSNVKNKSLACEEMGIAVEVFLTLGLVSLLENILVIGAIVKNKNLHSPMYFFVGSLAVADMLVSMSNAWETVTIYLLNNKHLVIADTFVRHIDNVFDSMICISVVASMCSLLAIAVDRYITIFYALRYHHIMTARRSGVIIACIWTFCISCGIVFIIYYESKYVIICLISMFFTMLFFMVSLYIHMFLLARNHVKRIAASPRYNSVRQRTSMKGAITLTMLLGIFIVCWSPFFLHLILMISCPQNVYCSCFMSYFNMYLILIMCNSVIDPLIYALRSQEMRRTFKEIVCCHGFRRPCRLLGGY

[1] = biological target: mouse melanocortin-1 receptor (mouse) (UniProt Q01727)
Chain of mouse melanocortin-1 receptor (mouse) (Q01727 whole entry): as the sequence (Q01727 whole entry) above

[2] = biological target: mouse melanocortin-3 receptor (mouse) (UniProt P33033)
Chain of mouse melanocortin-3 receptor (mouse) (P33033 whole entry): as the sequence (P33033 whole entry) above

[3] = biological target: mouse melanocortin-4 receptor (mouse) (UniProt P56450)
Chain of mouse melanocortin-4 receptor (mouse) (P56450 whole entry): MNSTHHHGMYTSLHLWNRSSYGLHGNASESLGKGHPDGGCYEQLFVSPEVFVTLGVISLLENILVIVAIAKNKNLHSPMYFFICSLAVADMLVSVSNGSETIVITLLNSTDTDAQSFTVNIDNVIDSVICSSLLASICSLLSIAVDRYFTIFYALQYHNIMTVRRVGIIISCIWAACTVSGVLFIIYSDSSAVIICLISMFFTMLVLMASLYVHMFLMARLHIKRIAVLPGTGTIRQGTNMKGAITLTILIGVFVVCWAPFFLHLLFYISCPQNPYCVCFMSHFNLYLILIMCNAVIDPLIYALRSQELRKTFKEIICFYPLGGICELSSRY

[4] = biological target: mouse melanocortin-5 receptor (mouse) (UniProt P41149)
Chain of mouse melanocortin-5 receptor (mouse) (P41149 whole entry): as the sequence (P41149 whole entry) above

[5] = biological target: mouse melanocortin-3 receptor (mouse) (UniProt P33033); remark: listed apart in the source
[6] = biological target: mouse melanocortin-4 receptor (mouse) (UniProt P56450); remark: listed apart in the source

Molecule	mMC3R percent maximal stimulatory response (compared to NDP-MSH) (mMC3R) [% @100μM]	agonist EC50, cAMP AlphaScreen [2] [µM]	agonist EC50, cAMP AlphaScreen [3] [µM]	agonist EC50, cAMP AlphaScreen [4] [µM]	pA2, antagonism of NDP-MSH at mMC3R, Schild analysis, cAMP AlphaScreen [5]	pA2, antagonism of NDP-MSH at mMC4R, Schild analysis, cAMP AlphaScreen [6]	other results
CC(=O)N[C@H](Cc1ccc2ccccc2c1)C(=O)N[C@H](Cc1ccc2ccccc2c1)C(=O)N[C@@H](Cc1c[nH]c2ccccc12)C(=O)N[C@@H](CCCNC(=N)N)C(N)=O [Peptide 6, Ac-DNal(2’)-DNal(2’)-Trp-Arg-NH2] (Ac-[d2Nal][d2Nal]WR-NH2)	35	–	–	–	–	–	–
CC(=O)N[C@H](Cc1ccc(I)cc1)C(=O)N[C@@H](CCCNC(=N)N)C(=O)N[C@H](Cc1ccc(I)cc1)C(=O)N[C@@H](CCCNC(=N)N)C(N)=O [Peptide 45, Ac-DPhe(pI)-Arg-DPhe(pI)-Arg-NH2] (Ac-[dPhe(4-I)]R[dPhe(4-I)]R-NH2)	–	–	–	–	–	–	mMC1R agonist activity in words (mMC1R): full agonist activity
CC(=O)N[C@H](Cc1ccc(I)cc1)C(=O)N[C@H](Cc1ccc2ccccc2c1)C(=O)N[C@@H](Cc1ccc2ccccc2c1)C(=O)N[C@H](CCCCN)C(N)=O [Peptide 34, Ac-DPhe(pI)-DNal(2’)-Nal(2’)-DLys-NH2] (Ac-[dPhe(4-I)][d2Nal][2Nal][dK]-NH2)	20	–	–	–	–	–	–
CC(=O)N[C@H](Cc1ccc2ccccc2c1)C(=O)N[C@@H](CCCNC(=N)N)C(=O)N[C@H](Cc1ccc(I)cc1)C(=O)N[C@H](CCCCN)C(N)=O [Peptide 19, Ac-DNal(2’)-Arg-DPhe(pI)-DLys-NH2]	–	–	–	–	–	–	mMC1R agonist activity in words (mMC1R): full agonist activity
CC(=O)N[C@H](Cc1ccc(I)cc1)C(=O)N[C@H](Cc1ccc2ccccc2c1)C(=O)N[C@@H](Cc1c[nH]c2ccccc12)C(=O)N[C@@H](CCCNC(=N)N)C(N)=O [Peptide 30, Ac-DPhe(pI)-DNal(2’)-Trp-Arg-NH2]	–	–	–	–	–	–	mMC5R EC50 (mMC5R): inactive
CC(=O)N[C@H](Cc1ccc(I)cc1)C(=O)N[C@@H](CCCNC(=N)N)C(=O)N[C@H](Cc1ccc(I)cc1)C(=O)N[C@H](CCCCN)C(N)=O [Peptide 43, Ac-DPhe(pI)-Arg-DPhe(pI)-DLys-NH2] (Ac-[dPhe(4-I)]R[dPhe(4-I)][dK]-NH2)	–	–	–	–	–	–	mMC1R agonist activity in words (mMC1R): full agonist activity
CC(=O)N[C@H](Cc1ccc2ccccc2c1)C(=O)N[C@@H](CCCNC(=N)N)C(=O)N[C@@H](Cc1c[nH]c2ccccc12)C(=O)N[C@H](Cc1ccc2ccccc2c1)C(N)=O [Peptide 17, Ac-DNal(2’)-Arg-Trp-DNal(2’)-NH2] (Ac-[d2Nal]RW[d2Nal]-NH2)	40	–	–	–	–	–	–
CC(=O)N[C@H](Cc1ccc2ccccc2c1)C(=O)N[C@H](Cc1ccc2ccccc2c1)C(=O)N[C@H](Cc1ccc2ccccc2c1)C(=O)N[C@@H](CCCNC(=N)N)C(N)=O [Peptide 3, Ac-DNal(2’)-DNal(2’)-DNal(2’)-Arg-NH2]	35	–	–	–	–	–	–
CC(=O)N[C@H](Cc1ccc2ccccc2c1)C(=O)N[C@@H](CCCNC(=N)N)C(=O)N[C@H](Cc1ccc(I)cc1)C(=O)N[C@@H](CCCNC(=N)N)C(N)=O [Peptide 21, Ac-DNal(2’)-Arg-DPhe(pI)-Arg-NH2] (Ac-[d2Nal]R[dPhe(4-I)]R-NH2)	–	–	–	–	–	–	mMC1R agonist activity in words (mMC1R): full agonist activity
Ac-DPhe(pI)-Arg-DNal(2’)-DLys-NH2 (peptide)	–	> 100	> 100	> 100	7.2	8.6	% receptor activation relative to NDP-MSH (partial agonist), cAMP AlphaScreen [1]: 30%; apparent EC50 (partial agonist), cAMP AlphaScreen [1]: 3.5 µM
CC(=O)N[C@H](Cc1ccc(I)cc1)C(=O)N[C@@H](CCCNC(=N)N)C(=O)N[C@@H](Cc1c[nH]c2ccccc12)C(=O)N[C@@H](CCCNC(=N)N)C(N)=O [Peptide 42, Ac-DPhe(pI)-Arg-Trp-Arg-NH2] (Ac-[dPhe(4-I)]RWR-NH2)	25	–	–	–	–	–	mMC1R partial agonist percentage of receptor activation relative to NDP-MSH (mMC1R): 50 % NDP
CC(=O)N[C@H](Cc1ccc(I)cc1)C(=O)N[C@@H](CCCNC(=N)N)C(=O)N[C@@H](Cc1c[nH]c2ccccc12)C(=O)N[C@H](Cc1ccc2ccccc2c1)C(N)=O [Peptide 41, Ac-DPhe(pI)-Arg-Trp-DNal(2’)-NH2] (Ac-[dPhe(4-I)]RW[d2Nal]-NH2)	25	–	–	–	–	–	–
CC(=O)N[C@H](Cc1ccc2ccccc2c1)C(=O)N[C@@H](CCCNC(=N)N)C(=O)N[C@@H](Cc1ccc2ccccc2c1)C(=O)N[C@H](CCCCN)C(N)=O [Peptide 22, Ac-DNal(2’)-Arg-Nal(2’)-DLys-NH2] (Ac-[d2Nal]R[2Nal][dK]-NH2)	–	–	–	–	–	–	mMC1R partial agonist percentage of receptor activation relative to NDP-MSH (mMC1R): 50 % NDP
Ac-[d2Nal]R[2Nal][dK]-NH2	–	> 100	> 100	> 100	6.2	7.8	% receptor activation relative to NDP-MSH (partial agonist), cAMP AlphaScreen [1]: 50%; apparent EC50 (partial agonist), cAMP AlphaScreen [1]: 3.3 µM
Ac-DPhe(pI)-DNal(2’)-Trp-DLys-NH2 (peptide)	–	> 100	> 100	> 100	5.7	6.6	% of maximal NDP-MSH response at 100 μM, cAMP AlphaScreen [1]: 65%
B1	–	> 100	> 100	> 100	6.2	7.6	agonist EC50, cAMP AlphaScreen [1]: > 100 µM
B2	–	> 100	> 100	> 100	7.4	8.5	agonist EC50, cAMP AlphaScreen [1]: 0.007 µM
B3	–	> 100	> 100	> 100	7.5	8.5	agonist EC50, cAMP AlphaScreen [1]: 0.035 µM
B4	–	–	> 100	> 100	7.4	8.7	% receptor activation relative to NDP-MSH (partial agonist), cAMP AlphaScreen [1]: 50%; apparent EC50 (partial agonist), cAMP AlphaScreen [1]: 7.9 µM; % of maximal NDP-MSH response at 100 μM, cAMP AlphaScreen [2]: 25%
